# B1: h7C3-5: humanized variant; heavy chain SEQ ID NO: 15, light chain SEQ ID NO: 16 (antibody, V domains shown)
# VH: QVQLVQSGAEVKKPGASVKVSCKASGYAFTSSWIHWVRQAPGQRLEWMGQIRPNSGNTYYNEKFKVRVTITRDTSASTAYMELSSLRSEDTAVYYCARYHYGFDYWGQGTLVTVSS
# VL: DIVMTQTPLSLSVTPGQPASISCRSSQSIVHSNGNTYLEWYLQKPGQSPQLLIYKVSNRFSGVPDRFSGSGSGTDFTLKISRVEAEDVGVYYCFQGAHLPWTFGGGTKVEIKR
# modifications: VH SEQUENCE; VL SEQUENCE
# B2: h7C3-5-MMAE: h7C3-5 conjugated with MMAE via cleavable valine-citrulline linker, average 3.8-4 MMAE per antibody (conjugate)
# VH: QVQLVQSGAEVKKPGASVKVSCKASGYAFTSSWIHWVRQAPGQRLEWMGQIRPNSGNTYYNEKFKVRVTITRDTSASTAYMELSSLRSEDTAVYYCARYHYGFDYWGQGTLVTVSS
# VL: DIVMTQTPLSLSVTPGQPASISCRSSQSIVHSNGNTYLEWYLQKPGQSPQLLIYKVSNRFSGVPDRFSGSGSGTDFTLKISRVEAEDVGVYYCFQGAHLPWTFGGGTKVEIKR
# modifications: non-natural residues
# notes: h7C3-5 conjugated with MMAE via cleavable valine-citrulline linker, average 3.8-4 MMAE per antibody
# B3: 7C3: anti-human NTSR1 antibody with VH SEQ ID NO: 1 and VL SEQ ID NO: 2, full-length IgG with human IgG1 constant domains (antibody, V domains shown)
# VH: QVQLQQPGSVLVRPGASVKLSCKASGYTFTSSWIHWAKQRPGQGLEWIGQIRPNSGNTYYNEKFKVKATLTVDTSSSTAYVDLSSLTSEDSAVYYCARYYYGFDYWGQGTLVTVSS
# VL: DVLMTQTPLSLPVSLGDQASISCRSSQSIVHSNGNTYLEWYLQKPGQSPKLLIYKVSNRFSGVPDRFSGSGSGTDFTLKISRVEAEDLGVYYCFQGSHLPWTFGGGTKLEIKR
# modifications: human IgG1 constant domains; VH SEQUENCE; VL SEQUENCE
# B4: h7C3-2: 7C3 variant harboring Y100H mutation in CDR H3 and S97A mutation in CDR L3 (antibody, V domains shown)
# VH: QVQLQQPGSVLVRPGASVKLSCKASGYTFTSSWIHWAKQRPGQGLEWIGQIRPNSGNTYYNEKFKVKATLTVDTSSSTAYVDLSSLTSEDSAVYYCARYHYGFDYWGQGTLVTVSS
# VL: DVLMTQTPLSLPVSLGDQASISCRSSQSIVHSNGNTYLEWYLQKPGQSPKLLIYKVSNRFSGVPDRFSGSGSGTDFTLKISRVEAEDLGVYYCFQGAHLPWTFGGGTKLEIKR
# B5: N54A: h7C3-2 variant, N54A in CDR H2 (antibody, V domains shown)
# VH: QVQLQQPGSVLVRPGASVKLSCKASGYTFTSSWIHWAKQRPGQGLEWIGQIRPASGNTYYNEKFKVKATLTVDTSSSTAYVDLSSLTSEDSAVYYCARYHYGFDYWGQGTLVTVSS
# VL: DVLMTQTPLSLPVSLGDQASISCRSSQSIVHSNGNTYLEWYLQKPGQSPKLLIYKVSNRFSGVPDRFSGSGSGTDFTLKISRVEAEDLGVYYCFQGAHLPWTFGGGTKLEIKR
# B6: D104A: h7C3 variant, D104A in CDR H3 (antibody, V domains shown)
# VH: QVQLQQPGSVLVRPGASVKLSCKASGYTFTSSWIHWAKQRPGQGLEWIGQIRPNSGNTYYNEKFKVKATLTVDTSSSTAYVDLSSLTSEDSAVYYCARYYYGFAYWGQGTLVTVSS
# VL: DVLMTQTPLSLPVSLGDQASISCRSSQSIVHSNGNTYLEWYLQKPGQSPKLLIYKVSNRFSGVPDRFSGSGSGTDFTLKISRVEAEDLGVYYCFQGSHLPWTFGGGTKLEIKR
# B7: Y105A: h7C3 variant, Y105A in CDR H3 (antibody, V domains shown)
# VH: QVQLQQPGSVLVRPGASVKLSCKASGYTFTSSWIHWAKQRPGQGLEWIGQIRPNSGNTYYNEKFKVKATLTVDTSSSTAYVDLSSLTSEDSAVYYCARYYYGFDAWGQGTLVTVSS
# VL: DVLMTQTPLSLPVSLGDQASISCRSSQSIVHSNGNTYLEWYLQKPGQSPKLLIYKVSNRFSGVPDRFSGSGSGTDFTLKISRVEAEDLGVYYCFQGSHLPWTFGGGTKLEIKR
# B8: P100A: h7C3-1 variant, P100A in CDR L3 (antibody, V domains shown)
# VH: QVQLQQPGSVLVRPGASVKLSCKASGYTFTSSWIHWAKQRPGQGLEWIGQIRPNSGNTYYNEKFKVKATLTVDTSSSTAYVDLSSLTSEDSAVYYCARYHYGFDYWGQGTLVTVSS
# VL: DVLMTQTPLSLPVSLGDQASISCRSSQSIVHSNGNTYLEWYLQKPGQSPKLLIYKVSNRFSGVPDRFSGSGSGTDFTLKISRVEAEDLGVYYCFQGSHLAWTFGGGTKLEIKR
# B9: H98A: h7C3-1 variant, H98A in CDR L3 (antibody, V domains shown)
# VH: QVQLQQPGSVLVRPGASVKLSCKASGYTFTSSWIHWAKQRPGQGLEWIGQIRPNSGNTYYNEKFKVKATLTVDTSSSTAYVDLSSLTSEDSAVYYCARYHYGFDYWGQGTLVTVSS
# VL: DVLMTQTPLSLPVSLGDQASISCRSSQSIVHSNGNTYLEWYLQKPGQSPKLLIYKVSNRFSGVPDRFSGSGSGTDFTLKISRVEAEDLGVYYCFQGSALPWTFGGGTKLEIKR
# B10: L99A: h7C3-1 variant, L99A in CDR L3 (antibody, V domains shown)
# VH: QVQLQQPGSVLVRPGASVKLSCKASGYTFTSSWIHWAKQRPGQGLEWIGQIRPNSGNTYYNEKFKVKATLTVDTSSSTAYVDLSSLTSEDSAVYYCARYHYGFDYWGQGTLVTVSS
# VL: DVLMTQTPLSLPVSLGDQASISCRSSQSIVHSNGNTYLEWYLQKPGQSPKLLIYKVSNRFSGVPDRFSGSGSGTDFTLKISRVEAEDLGVYYCFQGSHAPWTFGGGTKLEIKR
# B11: h7C3-1: 7C3 variant bearing Y100H mutation in CDR H3 (antibody, V domains shown)
# VH: QVQLQQPGSVLVRPGASVKLSCKASGYTFTSSWIHWAKQRPGQGLEWIGQIRPNSGNTYYNEKFKVKATLTVDTSSSTAYVDLSSLTSEDSAVYYCARYHYGFDYWGQGTLVTVSS
# VL: DVLMTQTPLSLPVSLGDQASISCRSSQSIVHSNGNTYLEWYLQKPGQSPKLLIYKVSNRFSGVPDRFSGSGSGTDFTLKISRVEAEDLGVYYCFQGSHLPWTFGGGTKLEIKR
# B12: G96A: h7C3-1 variant, G96A in CDR L3 (antibody, V domains shown)
# VH: QVQLQQPGSVLVRPGASVKLSCKASGYTFTSSWIHWAKQRPGQGLEWIGQIRPNSGNTYYNEKFKVKATLTVDTSSSTAYVDLSSLTSEDSAVYYCARYHYGFDYWGQGTLVTVSS
# VL: DVLMTQTPLSLPVSLGDQASISCRSSQSIVHSNGNTYLEWYLQKPGQSPKLLIYKVSNRFSGVPDRFSGSGSGTDFTLKISRVEAEDLGVYYCFQASHLPWTFGGGTKLEIKR
# Tests used:
# A549 = experiment: In vitro cell cytotoxicity assay (CellTiter-Glo); format: cell-based
# Protocol: (§1) The number of living cells were determined using the CellTiter-Glo® Luminescent Cell Viability Assay (Promega G7571). Cells were plated in 96-well opaque Costar plates (Cat number 136101). In brief, 500-2500 cells in 90 μL media were added to each well in quadruplicate and allowed to adhere for 16 hours. Anti-NTSR1 (dose range: 0-500 nM), anti-NTSR1-MMAE (dose range: 0-500 nM) or Paclitaxel (dose range: 0-100 nM) were added in […] 72-120 hours, medium was removed, and 200 μL of CellTiter-Glo® viability reagent contain culture medium (1:1) was added to each well and placed on an orbital shaker in the dark for 2 minutes. The plate was allowed to sit at RT for 10 minutes before being read on a GloMax® Explorer Multimode Microplate Reader (GM3500).
# PC-3 = experiment: In vitro cell cytotoxicity assay (CellTiter-Glo); format: cell-based
# Protocol: as §1
# NTSR1 on A549 cells = target: T1, NTSR1 on A549 cells (Homo sapiens, UniProt P30989); experiment: Flow cytometry (FACS) binding of anti-NTSR1 antibodies on A549 cells; conditions: for FACS binding (%, 1 μg/ml) / FACS binding (%, 10 μg/ml): A549 cells; for FACS binding (%, 1 μg/ml): antibody 1 μg/ml; for FACS binding (%, 10 μg/ml): antibody 10 μg/ml; for EC50: relative mean fluorescence intensity (MFI) on A549 cells; for binding affinity to cell surface NTSR1 compared with h7C3-1: FACS, h7C3-1 variants
# T1 construct: endogenous in cells; host or cells: A549 (NSCLC)
# Protocol: A total of 1×10^6 cells were reacted with an anti-NTSR1 antibody in 100 μL of FACS buffer (PBS containing 0.5% BSA) for 60 minutes at 4° C. and washed two times to remove excess antibody. Secondary FITC (BD Pharmingen™) conjugated mouse anti-human IgG antibodies were incubated for an additional 60 minutes on ice. Cells were washed again and followed by an additional incubation with 1 ml PBS containing 0.5 mg/mL propidium iodide at 4° C. for 10 minutes. Data were collected on 10,000 living cells by FACS (Bio-Red S3e cell sorter). Fluorescence intensity from channel FL-1 was calculated with Flow Jo flow […] cytometry analysis software.
# [1] = test system: cyclic ECL2 peptide of NTSR1; experiment: NTSR1-binding affinity ELISA (alanine scanning variants); design: species or system human; conditions: for effect on h7C3 affinity (in words): compared with parental h7C3
# Protocol: The NTSR1-binding capacity of different antibodies were measured by ELISA. Briefly, NeutrAvidin 96-well plates (Pierce Cat:15128) were coated with cyL2-Biotin peptides at a final concentration of 5 μg/ml at […]. On the following day, the coating solution was removed, and the plates were blocked with 5% (v/v) non-fat dry milk in phosphate buffer saline (PBS) for 1 hour. After washing with PBST, gradient concentrations of anti-NTSR1 antibodies were added in triplicate. After 1 hour of incubation, the plate was washed three times with PBST, followed by the addition of horseradish peroxidase (HRP)-conjugated goat anti-human IgG Fc antibody (100 μL) into each well for an additional hour at RT. Finally, 100 μL of tetramethylbenzidine (TMB) substrate was added into each well to produce color for visualization. After 2 minutes of incubation, 100 μL of 2M H2SO4 was used to stop the reaction. The absorbance of each well was read at 450 nm with a plate reader. Flow cytometry
# [2] = alanine scanning of CDR L3 of h7C3-1
# cyclic ECL2 peptide of NTSR1, sequence (P30989 206-234 limits assumed): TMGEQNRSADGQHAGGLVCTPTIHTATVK
# T1 sequence (P30989 whole entry): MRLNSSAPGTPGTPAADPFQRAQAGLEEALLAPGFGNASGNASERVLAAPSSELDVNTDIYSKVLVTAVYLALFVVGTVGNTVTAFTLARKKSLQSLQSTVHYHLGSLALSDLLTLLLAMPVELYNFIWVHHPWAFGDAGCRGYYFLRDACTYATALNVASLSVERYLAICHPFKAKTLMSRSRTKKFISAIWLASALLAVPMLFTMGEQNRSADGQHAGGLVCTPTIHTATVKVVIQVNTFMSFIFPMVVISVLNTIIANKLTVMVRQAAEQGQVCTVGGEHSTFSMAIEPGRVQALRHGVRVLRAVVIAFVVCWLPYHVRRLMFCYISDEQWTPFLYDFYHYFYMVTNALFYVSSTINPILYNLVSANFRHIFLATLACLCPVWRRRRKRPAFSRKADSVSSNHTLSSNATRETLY
molecule,measurement,setting,value
B1,IC50,A549,> 500 nM
same,IC50,PC-3,> 500 nM
B2,IC50,A549,33.1 ± 1.72 nM
same,IC50,PC-3,56.5 ± 7.1 nM
B3,binding to A549 cells,"NTSR1 on A549 cells; 10 μg/ml, flow cytometry",strong binding
same,"FACS binding (%, 1 μg/ml)",NTSR1 on A549 cells,16.8%
same,"FACS binding (%, 10 μg/ml)",NTSR1 on A549 cells,83.2%
same,EC50,NTSR1 on A549 cells,11.3 ± 2.8 µg/mL
B4,"FACS binding (%, 1 μg/ml)",NTSR1 on A549 cells,86.0%
same,"FACS binding (%, 10 μg/ml)",NTSR1 on A549 cells,99.5%
same,binding affinity to cell surface NTSR1 compared with h7C3-1,NTSR1 on A549 cells,higher affinity
same,EC50,NTSR1 on A549 cells,1.5 ± 0.5 µg/mL
same,effect on h7C3-1 affinity for peptide (in words),[1]; [2],no effect
B5,binding affinity to peptide compared with h7C3-2 (in words),[1]; h7C3-2 variants,higher binding affinity
B6,effect on h7C3 affinity (in words),[1],no effect
B7,effect on h7C3 affinity (in words),[1],no effect
B8,binding affinity to cell surface NTSR1 compared with h7C3-1,NTSR1 on A549 cells,significantly diminished
same,effect on h7C3-1 affinity for peptide (in words),[1]; [2],no effect
B9,binding affinity to cell surface NTSR1 compared with h7C3-1,NTSR1 on A549 cells,slightly affects
same,effect on h7C3-1 affinity for peptide (in words),[1]; [2],no effect
B10,decrease of h7C3-1 affinity,[1]; [2],70%
B11,"FACS binding (%, 1 μg/ml)",NTSR1 on A549 cells,41%
same,"FACS binding (%, 10 μg/ml)",NTSR1 on A549 cells,93.1%
same,EC50,NTSR1 on A549 cells,7.6 ± 1.7 µg/mL
same,effect on h7C3 affinity (in words),[1],higher affinity
B12,binding affinity to cell surface NTSR1 compared with h7C3-1,NTSR1 on A549 cells,significantly diminished
same,effect on h7C3-1 affinity for peptide (in words),[1]; [2],no effect

# Source: US12710427B2, “Anti-human neurotensin receptor 1 antibody and use thereof” (National Health Research Institutes, priority 2020, dated 2026)
